The results in this text go back to patent US20220396614A1.

The assay addresses NANP 5.5-mer peptide, NP(NANP)5, representative of the PfCSP central repeat (Plasmodium falciparum (NF54)). The experiment in a line: SPR (FIG. 5E).

pKd: −log10 of the molar value.

As to mAb 317 (antibody), the pKd is above 10.00.

Regarding mAb CIS43 (antibody), the fold lower affinity than mAb 4493 amounted to 100 fold.
